Measured values reported in patent US20160145321A1.

What was measured:
[1] = target: G protein of RSV A/Long (virus, ATCC Cat. No. VR-26) (Respiratory syncytial virus A/Long) (UniProt P20895); experiment: cell-based or functional assay
[2] = target: T1, Sym-1705 (RSV-G type A central region peptide 145-201) (Respiratory syncytial virus type A); experiment: ELISA, antibody titrated on biotinylated peptide on avidin plates (FIG. 3)
[3] = target: T2, Sym-1788 (RSV-G type B central region peptide 145-201) (Respiratory syncytial virus type B); experiment: as above
[4] = target: T3, Sym-1789 (RSV-G type B central region peptide 145-184) (Respiratory syncytial virus type B); experiment: as above
[5] = target: T4, Sym-1706 (RSV G central conserved domain (CCD) peptide, type A 145-184) (Respiratory syncytial virus type A); experiment: as above
[6] = target: T1, Sym-1705 (RSV-G type A central region …); experiment: BLI (Octet Red384), biotinylated peptide on streptavidin sensor tips
[7] = target: T2, Sym-1788 (RSV-G type B central region …); experiment: as above
[8] = target: T3, Sym-1789 (RSV-G type B central region …); experiment: as above
[9] = target: T4, Sym-1706 (RSV G central conserved …); experiment: as above

Binder	Neutralization IC50 (plaque reduction assay, Vero cells) [1] [µg/mL]	IC50 [2] [µg/mL]	IC50 [3] [µg/mL]	IC50 [4] [µg/mL]	IC50 [5] [µg/mL]	binding response (Octet) [RU] [6] [RU]	binding response (Octet) [RU] [7] [RU]	binding response (Octet) [RU] [8] [RU]	binding response (Octet) [RU] [9] [RU]
CR9505 (an antibody based on 131-2G, comprising the heavy and light chain variable region of 131-2G) (antibody, from another filing, V domains shown) VH: EVQLQQSGPELVKPGTSVKISCKASGYSFTGFTMNWVKQSHGKNLEWFGLINPFNGNTGYNQKFKGKATLTVDKSSSTAFMELLSLTSEDSAVYYCARSGKSYDYEAWFTYWGQGTLVTVSA VL: DIVMTQTTLSLPVSLGNQASISCRSSQTIVHTNGNTYLEWYLQKPGQSPKLLIYKVSNRFSGVPDRFSGSGSGTDFILNISRVEAEDLGVYYCFQGSHVPFTFGSGTKLEIKR	0.018								
CB003.1 (antibody, V domains shown) VH: QVQLVQSGPELRKPGASVTVSCKASGYTFTTYYIHWVRQAPGGGLDWMGMINTGSGVTSYAQKFQGRVAMTRDTSTSTVFMELSSLRFEDTALYYCARMYSGSWYPFDYWGQGALVTVSS VL: EIVLTQSPGTLSLSPGERATLSCRASQNINGNYLAWYQQKPGLAPRLLIYEASSRATGIPDRFSGSGSGTDFTLTISSLEPEDFGVYYCQQYGTSPFFTFGPGTKVDIK		0.02	0.02	0.02	0.02	3.48	3.28	3.2	3.36
CB010.7 (antibody, V domains shown) VH: QVQLVESGGGVVQPGRSLRLSCAASGFTFNTHGMHWVRQAPGKGLEWVAVMSYDGTKKYHADSVKGRFTISRDNSKNTLYLQMNSLRVEDTAIYYCAKVGELRSFDWLLADGTAYYYYGMDVWGQGTTVTVSS VL: not shown		0.02	0.02	0.02	0.02	1.25	1.94	2.96	1.74
